Non-standard residues stand in square brackets, D forms with d. Primed or numbered codes have the meaning given here. No end group written: not given here. *: point of attachment. PEG28′ = (PEG)28 spacer, 28 polyethylene glycol repeats; Biotin = O=C1N[C@H]2[C@H](CS[C@H]2CCCCC(=O)*)N1; pY = N[C@@H](Cc1ccc(OP(=O)(O)O)cc1)C(=O)O

In this assay the target is T1, LAIR-1 ITIM phosphopeptide (PEG28-ITIM) (Mus musculus).
T1 chain: {Biotin-PEG28′}-DLQEVT[pY]IQLDHH
Put plainly: SPR.

B1: SHP-1 (protein)
chain: not shown
Take B1: the Kd is 9.38 µM.
